The values below come from patent publication US20240352438A1, “MEANS AND METHODS FOR DETOXIFYING OCHRATOXIN A” (DSM Austria GmbH, priority 2021, published 2024).

Bounds are passed on as bounds.

Data set [1] in a line: OTA detoxification activity assay (specific activity, fluorescence reduction ex/em 390/450 nm). The class given is biochemical. To be noted: 37° C., 200 ng/mL OTA, 100 mM sodium phosphate buffer. Put shortly: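 Recombinant enzyme preparation with 200 ng/mL OTA in 100 mM sodium phosphate, at pH 6.0 and pH 7.5, 37° C. Degradation followed as the fall in fluorescence at ex/em 390/450 nm. Specific activity taken from the initial linear slope; one unit degrades 1 μmol OTA per min at a starting OTA of […].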

A short description of data set [2]: Thermostability assay: residual OTA detoxification activity after 10 min incubation at 45-99° C. (T50). To be noted: 0.1 mg/mL protein in 20 mM Tris-HCl pH 7.5, residual OTA detoxification activity relative to 4° C. reference aliquot. The class given is physicochemical. The protocol:
Stability was determined in terms of thermostability. Notwithstanding, a person having skill in the art is aware that stability towards high temperature (e.g. more than 30° C.) often correlates with stability towards other non-standard conditions such as stability towards acidic or basic pH (e.g. below pH 6.5 or above pH 7.5, respectively), towards elevated salt concentrations, organic solvents or drying.
To determine the kinetic stability of the produced enzymes, thermostability assays were performed. To this end, purified protein samples were diluted to a protein concentration of 0.1 mg/mL in 20 mM Tris-HCl buffer pH 7.5 and aliquots were incubated in a thermocycler for 10 min at either 45, 55, 65, 75, 80, 85, 90, 95 or 99° C. After this incubation, the aliquots were stored at 4° C. until further analysis. A reference aliquot was stored at 4° C. throughout the incubation. Subsequently, all aliquots were assayed for residual OTA detoxification activity using the assay described in Example 3. Residual enzyme activities were calculated relative to the reference aliquot. The temperature range in which 50% of the initial activity was lost after the incubation (T50), in relation to the reference aliquot was determined.

B1: 20 (protein)
chain: MTTRFRILTAVLSLLAASACAADAAPATPHTVVLRAARMFDGASGKLVERPQLTIVGNKIVRIAQADKAEVPAGAEVIDLGDSTLLPGFIDAHVHLSGQGSDNWYGDFFDNMMRFPAEQALYGAYYARITLEAGFTSVRDLGSTDWVALGLRNAIDAGKVPGPRMLVSNYAVGSTGGHADQDPIPPHKLPLAGPLQGVCNGPEECRAAVRYQIKYGANVIKFMPSGGVLSLSDPVDAPELSQDEMNAVIGESHAWGRKVAAHAHGDKAAKMAVAAGVDSIEHGSFIEDDTLRAMKAKNVYLVPTISAIAHVEEKIGTFPPVIAEKGRAAAAHLRQTFRHAVQIGVPIALGTDAGVGAHGTNAREFRYMVENGLTPAQSLLAGTSNAARLLGTIDKVGTLEAGKLADVVAVPGNPIADITVTERPVFVMKDGVVVRRGAVR
modifications: polypeptide 6
As to B1, in data set [1], the “Specific OTA detoxification activities in U/g at pH 6.0” value was 49.73 U/g and the “Specific OTA detoxification activities in U/g at pH 7.5” value turned out to be 100.52 U/g. In addition, in data set [2], the “T50 (temperature at which 50% of the initial activity was maintained)” value was under 45 °C.

B2: 22 (protein)
chain: MQYDVAIKNGNVFTGTEFIGKMNIYISNGKISKVSKEDLNAKQEIDAKDMLVMPGLIDAHMHISGLKGGSLLKIMFEKPEYRALRATKWLEKLLLAGFTTVRDCGEPISISLKRAVNEGYIKGPKIIAAGKPITQTFGHGEFSHDIPLEFSISLGFSEICDGTESCIHAARKVLRDGSDFIKIFATGGVLSQRDRPDMPQLSFDEIRAIVNEAEKAGTYVAAHAHGDKGARIAIEAGIKTLEHGSLLKEDTLKLMLEKNISLTPTLTITEIIYKYGKTIGVDEWGLEKIVEVRENLHKVLRKAKELGITIITGTDMGFETGLEDYDIGKNWTEILLLTEVGGLSNEEALRAATYNSAKALGLNSGLIDEGKDADIIVIDGNPLENIKDVSKVVHVIKQGKLEVLDGKIINNY
modifications: polypeptide 8
Turning to B2, in data set [1], the “Specific OTA detoxification activities in U/g at pH 6.0” value turned out to be 0.66 U/g and the “Specific OTA detoxification activities in U/g at pH 7.5” value turned out to be 0.79 U/g. In addition, the “T50 (temperature at which 50% of the initial activity was maintained)” value in data set [2] was over 95 °C.

B3: 21 (protein)
chain: MTTPTRILTAVLALLASNACAADATPSTPHTVVLRAARMFDGASGKLVERPQLTIVGNKIVRIAQADKADVPAGAEVIDLGDATLLPGFIDAHVHLSGQGSDNWYGDFFDNMMRFPAEQALYGAYYARITLEAGFTSVRDVGSTDWVALGLRNAIDAGKVPGPRMLVSNYAVGSTGGHADQDPIPPHKLPLAGPLQGVCNGPEECRAAVRYQIKYGANVIKFMPSGGVLSLSDPVDAPELSQDEMNAVIGESHAWGRKVAAHAHGDKAAKMAVAAGVDSIEHGSFIEDDTLRAMKAKGVYLVPTISAIAHVEEKIATFPPVIAEKGRAAAAHLRQTFRHAVQIGVPIALGTDAGVGAHGTNAREFRYMVENGLSPAQSLLAGTSNAARLLGTIDRVGTLEAGKLADVVAVPGNPIADITVTERPVFVMKDGVVVRRGAVR
modifications: polypeptide 7
Take B3: in data set [1], the “Specific OTA detoxification activities in U/g at pH 6.0” value is 20.53 U/g and the “Specific OTA detoxification activities in U/g at pH 7.5” value stood at 30.87 U/g. In addition, the “T50 (temperature at which 50% of the initial activity was maintained)” value in data set [2] was 65-75 °C.

B4: 368 (protein)
chain: MTTPTRILTAVLSLLAANACAADAAPATPHTVVLRAARMFDGASGKLVERPQLTIVGNKIVRIAQADKADVPAGAEVIDLGDATLLPGFIDAHVHLSGQGSDNWYGDFFDNMMRFPAEQALYGAYYARITLEAGFTSVRDVGSTDWVALGLRNAIDAGKVPGPRMLVSNYAVGSTGGHADQDPIPPHKLPLAGPLQGVCNGPEECRAAVRYQIKYGANVIKFMPSGGVLSLSDPVDAPELSQDEMNAVIGESHAWGRKVAAHAPGDKAAKMAVAAGVDSIEHGSFIEDDTLRAMKAKGVYLVPTISAIAHVEEKIATFPPVIAEKGRAAAAHLRQTFRHAVQIGVPIALGTDAGVGAHGTNAREFRYMVENGLSPAQSLLAGTSNAARLLGTIDRVGTLEAGKLADVVAVPGNPIADITVTERPVFVMKDGVVVRRGAVR
modifications: exemplary polypeptide
Regarding B4, in data set [1], the “Specific OTA detoxification activities in U/g at pH 6.0” value came to 3.70 U/g and the “Specific OTA detoxification activities in U/g at pH 7.5” value was determined as 15.10 U/g. Further, in data set [2], the “T50 (temperature at which 50% of the initial activity was maintained)” value is 68 °C.
